Assay [1] has as its target T1, HcKCR2 (Hyphochytrium catenoides, UniProt Z9CM73ZIR3).
T1 construct: M1-D265; MSP1E3D1/SoyPC nanodisc; residues 2-260 modelled (initiator Met lost); homotrimer
T1 sequence (Z9CM73ZIR3 1-265): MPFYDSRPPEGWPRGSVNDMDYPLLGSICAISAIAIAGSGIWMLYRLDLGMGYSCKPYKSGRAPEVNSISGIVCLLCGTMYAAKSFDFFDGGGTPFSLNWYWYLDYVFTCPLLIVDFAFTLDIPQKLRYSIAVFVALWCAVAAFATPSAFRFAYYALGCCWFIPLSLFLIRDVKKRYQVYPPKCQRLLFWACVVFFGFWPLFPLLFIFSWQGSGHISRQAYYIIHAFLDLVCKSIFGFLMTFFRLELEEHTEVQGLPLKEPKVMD
The assay can be described thus: cryo-EM structure. The note with it: dark state, nanodisc, pH 7.5; covalent Schiff base to K233; 6-s-cis conformer. Format: binding.

The target of assay [2] is HcKCR1 WT (K+-selective channelrhodopsin 1 from Hyphochytrium catenoides) (Hyphochytrium catenoides). The experiment in a line: cryo-EM structure; dark state; protein in MSP1E3D1/SoyPC nanodiscs, 20 mM HEPES-NaOH pH 7.5, 100 mM NaCl; C3 symmetry.
Assay [3] concerns the target HcKCR2 WT (K+-selective channelrhodopsin 2 from Hyphochytrium catenoides) (Hyphochytrium catenoides). The assay is described as above.

For the compound `CC1=C(/C=C/C(C)=C/C=C/C(C)=C/C=O)C(C)(C)CCC1` [all-trans-retinal], in assay [1], the cryo-EM structure entry was “HcKCR2 thus represents the initial naturally occurring microbial rhodopsin with experimentally demonstrated 6-s-cis-retinal configuration”.

As to “HcKCR1 WT (K+-selective channelrhodopsin 1 from Hyphochytrium catenoides) (domain or fragment)”, the stoichiometry N in assay [2] is 3.

As for “HcKCR2 WT (K+-selective channelrhodopsin 2 from Hyphochytrium catenoides) (domain or fragment)”, in assay [3], the stoichiometry N is 3.

Source of the values: paper PMC7615185, “Structural basis for ion selectivity in potassium-selective channelrhodopsins” (Cell, 2023).
